# Experimental data reported in patent US12319742 (SHATTUCK LABS, dated 2025).
# B1: SL-061 (antibody, human IgG1, kappa)
# heavy: QVQLQQSGPGLVKPSQTLSLTCAISGDSVSGYSAAWNWIRQSPSRGLEWLGRTYYRSKWYNDYAVSVKSRITINPDTSKNQFSLQLNSVTPEDTAVYYCARDYYGSESYYNRGYYYYGMDVWGQGTTVTVSSASTKGPSVFPLAPSSKSTSGGTAALGCLVKDYFPEPVTVSWNSGALTSGVHTFPAVLQSSGLYSLSSVVTVPSSSLGTQTYICNVNHKPSNTKVDKKVEPKSCDKTHTCPPCPAPEAAGAPSVFLFPPKPKDTLMISRTPEVTCVVVDVSHEDPEVKFNWYVDGVEVHNAKTKPREEQYNSTYRVVSVLTVLHQDWLNGKEYKCKVSNKALPAPIEKTISKAKGQPREPQVYTLPPSREEMTKNQVSLTCLVKGFYPSDIAVEWESNGQPENNYKTTPPVLDSDGSFFLYSKLTVDKSRWQQGNVFSCSVMHEALHNHYTQKSLSLSPGK
# light: AIQLTQSPSSLSASVGDRVTITCRASPGISSALAWYQQKPGKAPKLLMYDESSQESGVPSRFSGSGSGTDFTLTISSLQPEDFATYYCQQFNDYPLTFGGGTKVEIKRTVAAPSVFIFPPSDEQLKSGTASVVCLLNNFYPREAKVQWKVDNALQSGNSQESVTEQDSKDSTYSLSSTLTLSKADYEKHKVYACEVTHQGLSSPVTKSFNRGEC
# notes: Same variable regions as SL-033; IgG1 with L234A/L235A+G237A; also called clone 061; SL-061 (L234A/L235A+G237A)
# Columns and labels:
# [1] = biological target: T1, TNFRSF25 on lymphocytes in human PBMCs (human, UniProt Q93038 25-417); test: flow cytometry MFI on CD8+ T cells of human PBMCs (panel 1003_CD8+T), IL12+IL18 stimulation 24 h, APC anti-human Fc
# T1 construct: whole, on cells; also called TNFRSF25 on CD4+ and CD8+ T cells and NK cells
# T1 sequence (looked up): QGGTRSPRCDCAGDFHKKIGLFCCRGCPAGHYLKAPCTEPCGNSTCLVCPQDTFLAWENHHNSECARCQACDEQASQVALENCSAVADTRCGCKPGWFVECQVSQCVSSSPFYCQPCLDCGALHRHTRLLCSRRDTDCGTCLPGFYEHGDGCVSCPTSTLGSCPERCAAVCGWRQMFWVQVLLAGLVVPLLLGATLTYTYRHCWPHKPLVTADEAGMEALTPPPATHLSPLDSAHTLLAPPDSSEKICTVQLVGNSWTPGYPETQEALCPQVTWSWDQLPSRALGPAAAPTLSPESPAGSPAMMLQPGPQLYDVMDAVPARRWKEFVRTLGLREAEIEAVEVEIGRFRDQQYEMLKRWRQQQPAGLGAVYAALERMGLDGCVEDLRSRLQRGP
# Procedure: (§1) Human PBMCs were stimulated with either IL12+IL18 or anti-CD3/CD28 for 24 hours to assess binding of anti-TNFRSF25 to lymphocyte subsets.
# (§2) Figure 9: FIG. 9. […] Figure 10: FIG. 10.
# [2] = biological target: T1, TNFRSF25 on lymphocytes in human PBMCs; test: flow cytometry MFI on NK cells of human PBMCs, IL12+IL18 stimulation 24 h, APC anti-human Fc
# Procedure: as §1, §2
# [3] = biological target: T2, biotinylated recombinant human TNFRSF25-His tagged (Acro #TN5-H52H3) (human, UniProt Q93038 25-199, biotinylated); test: SPR (Biacore 8K); biotinylated TNFRSF25-His on streptavidin chip SA, SL-061 flowed; 1:1 binding
# T2 construct: treated as the same protein; also called recombinant biotin-conjugated human TNFRSF25 protein; DR3
# T2 sequence (looked up): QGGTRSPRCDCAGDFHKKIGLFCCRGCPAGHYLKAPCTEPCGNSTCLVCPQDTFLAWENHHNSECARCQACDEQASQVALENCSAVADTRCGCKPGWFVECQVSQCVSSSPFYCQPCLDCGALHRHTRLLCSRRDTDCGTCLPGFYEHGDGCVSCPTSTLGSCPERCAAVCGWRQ
# Procedure: (§3) (FIG. 5A) BLI assay was performed using the Octet Red 96e instrument. Streptavidin biosensors were loaded with biotinylated recombinant human TNFRSF25-His tagged (Acro #TN5-H52H3) as the ligand. […] (FIG. 5B) SPR was performed on a Biacore 8K instrument.
# [4] = biological target: T3, biotinylated recombinant human FcRn-His tagged protein (Acro #FCM-H82W7) (human, UniProt P55899 24-297; P61769 21-119, biotinylated); test: BLI/Octet; biotinylated human FcRn-His on streptavidin biosensor; pH 7.4
# T3 construct: also called hFcRn; neonatal Fc receptor
# T3 sequence (P55899 24-297 limits assumed, chain 1 of 2): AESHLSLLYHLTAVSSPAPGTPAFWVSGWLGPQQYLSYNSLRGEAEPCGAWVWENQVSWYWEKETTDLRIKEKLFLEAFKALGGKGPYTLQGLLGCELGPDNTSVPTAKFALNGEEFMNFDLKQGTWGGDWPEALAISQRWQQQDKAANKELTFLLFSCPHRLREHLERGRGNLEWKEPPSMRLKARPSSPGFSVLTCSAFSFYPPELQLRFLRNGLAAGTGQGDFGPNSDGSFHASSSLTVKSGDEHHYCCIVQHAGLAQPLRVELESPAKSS
# T3 sequence (P61769 21-119 limits assumed, chain 2 of 2): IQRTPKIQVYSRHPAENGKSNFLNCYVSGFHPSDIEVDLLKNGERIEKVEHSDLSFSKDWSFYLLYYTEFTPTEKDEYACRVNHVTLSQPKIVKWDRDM
# [5] = biological target: T1, TNFRSF25 on lymphocytes in human PBMCs; test: flow cytometry MFI on CD8+ T cells of human PBMCs (panel 1003_CD8+T), no stimulation, APC anti-human Fc
# [6] = biological target: T1, TNFRSF25 on lymphocytes in human PBMCs; test: flow cytometry MFI on CD8+ T cells of human PBMCs (panel 1003_CD8+T), anti-CD3/CD28 stimulation 24 h, APC anti-human Fc
# Procedure: as §1, §2
# [7] = biological target: T2, biotinylated recombinant human …; test: SPR (Biacore); biotinylated TNFRSF25-His on streptavidin chip SA; 2 min association, 30 min dissociation; 1:1 binding
# Procedure: as §3
# [8] = biological target: FcγR1 (CD64), BLI reagent (UniProt P12314 16-288, limits assumed); test: BLI; antibody as analyte at 300 nM on FcγR1
# Sequence of FcγR1 (CD64), BLI reagent (P12314 16-288 limits assumed): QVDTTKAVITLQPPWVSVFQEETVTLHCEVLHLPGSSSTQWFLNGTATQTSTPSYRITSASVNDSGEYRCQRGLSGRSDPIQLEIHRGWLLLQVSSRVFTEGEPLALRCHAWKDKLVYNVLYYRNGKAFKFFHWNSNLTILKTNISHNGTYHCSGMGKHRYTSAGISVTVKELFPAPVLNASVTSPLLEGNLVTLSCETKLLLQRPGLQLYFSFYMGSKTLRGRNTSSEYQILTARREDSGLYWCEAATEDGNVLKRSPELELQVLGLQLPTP
# [9] = biological target: T3, biotinylated recombinant human FcRn-His …; test: BLI/Octet; biotinylated human FcRn-His on streptavidin biosensor; pH 6.0
# [10] = biological target: T4, GITR; test: flow cytometry on engineered mammalian cells overexpressing GITR, APC anti-human Fc
# T4 construct: member of group m24; also called GITR overexpressed in engineered mammalian cells
# T4 chain: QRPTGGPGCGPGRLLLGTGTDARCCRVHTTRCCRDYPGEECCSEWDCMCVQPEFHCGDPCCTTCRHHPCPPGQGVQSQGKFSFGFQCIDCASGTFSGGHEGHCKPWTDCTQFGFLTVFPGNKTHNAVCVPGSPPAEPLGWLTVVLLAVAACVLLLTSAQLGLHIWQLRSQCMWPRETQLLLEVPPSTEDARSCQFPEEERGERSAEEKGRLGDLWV
# [11] = biological target: T1, TNFRSF25 on lymphocytes in human PBMCs; test: flow cytometry MFI on CD4+ T cells of human PBMCs, anti-CD3/CD28 stimulation 24 h, APC anti-human Fc
# Procedure: as §1, §2
# [12] = biological target: T5, CD40; test: flow cytometry on engineered mammalian cells overexpressing CD40, APC anti-human Fc
# T5 construct: member of group m24; also called CD40 overexpressed in engineered mammalian cells
# T5 sequence (chain, as listed by the source limits assumed): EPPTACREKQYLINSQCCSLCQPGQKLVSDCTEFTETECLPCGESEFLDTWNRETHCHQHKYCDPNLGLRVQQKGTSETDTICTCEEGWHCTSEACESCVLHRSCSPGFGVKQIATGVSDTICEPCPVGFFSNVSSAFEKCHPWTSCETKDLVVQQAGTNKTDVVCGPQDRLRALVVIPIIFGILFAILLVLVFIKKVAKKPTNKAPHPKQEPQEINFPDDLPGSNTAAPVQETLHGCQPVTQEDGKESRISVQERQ
binder,measurement,setting,value
B1,EC50,[1],0.043 nM
same,EC50,[2],0.065 nM
same,Kd,[3],0.00136 nM
same,Kd,[4],7.41 nM
same,koff,[4],0.00327 s⁻¹
same,kon,[4],441000 M⁻¹ s⁻¹
same,EC50,[5],0.068 nM
same,EC50,[6],0.059 nM
same,koff,[7],3.89e-06 s⁻¹
same,kon,[7],2.85e+06 M⁻¹ s⁻¹
same,binding result,[8],no binding (tested: 300 nM)
same,Kd,[9],4.41 nM
same,koff,[9],0.00104 s⁻¹
same,kon,[9],235000 M⁻¹ s⁻¹
same,binding result,[10],no binding (tested: about 20 nM)
same,EC50,[11],0.059 nM
same,binding result,[12],no binding (tested: about 20 nM)
